Experimental data: the nanobody polyreactivity screen of Harvey et al. (2022)

Assay: yeast display, Sf9 membrane polyspecificity reagent, FACS + sequencing; frameworks hold sequencing errors
How it was run: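 After 36–48 hours of galactose induction, yeast (Saccharomyces cerevisiae BJ5465) displaying a synthetic nanobody library were stained at 4 °C for 1 hour with 10% biotinylated, detergent-solubilized Sf9 membrane reagent. Streptavidin microbeads enriched the stained cells before FACS sorting into low and high (top ~1%) gates on anti-HA and streptavidin fluorescence. Each clone's polyreactivity label reflects its gate of origin.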

Sequence	polyreactivity (PSR sort gate)
QVQLVESGGGLVQAGGSLRLSCAASGSTFWYNAMGWYRQAPGTERELVATITNSGGSTYYADSVKGRFTISRDNAKNTVYLQMNSLKPEDTAVYYCATDVYSGALLKYDYWGQGTQVTVSS	low polyreactivity
QVQLVESGGALVQAGGSLRLSCAASGITFKPYGMGRYRQAPGKETELVADITSGGITYYADSVKGRFTISRDNAKNTVYLQMNSLKPEDTDVYYCAAVGGRSSYRLDYWGQGTQVTVSS	low polyreactivity
QVQLVESGGGLVQAGGSLRLSCAASGSTFRWNAMGWYTPAPGKERELVAAITSSGSTYYADSVKGRFTISRDNAKNTVYLQMNSLNPEDTAVYSCAGRANGYWNTYELDYWGQGIQVTVSS	low polyreactivity
QVQLVESGGGLVQAGGSLRLSCAASGSILGINVMGWYRQAPGKERELVAAISRRGGSTYYADSVKGRFTISRDNAKNTVYLQMNSLKPEDTAVYYCAATRTARTMGYCGQGTQVTVSS	high polyreactivity
QVQLVESGGGLVQAGGSLRLSCAASVFYPYAMGWYRQAPGKERELVAAISWSGGRTYYADSVKGRFTISRDNAKNTVYLQMNSLKPEDTAVYYCNKVYSSYRVYDFNYWGQGTQVTVSS	high polyreactivity
QVQLVESGGGLVQAGGSLRLSCAASGRIFYKYAMGWYRQAPGKERELVAAISYSGGSTYYADSMKGRFTLSRDNAKNTVYLQMNSLTPEDTAVYYCATRRREAGIEYDYWGQGTQVTVSS	high polyreactivity
QVQLVESGGGLVQAGGSLRLSCAASGFTFTYYAMGWYRQAPGKERELVAAISWRGTSTFYADSVKGRFTISRDNAKNTVYLQMNSLKPEDTAVYYCATEKWVGYKYWSSRKYDYWGQGTQVTVSS	high polyreactivity
QVQLVESGGGLVQAGGSLRLSCAASGSNFTAYAMGWYRQAPGKERELVAAIDDSGDSTYYADSVKGRFTISRDNSKNTVYLQMNSLKPEDTAVYYCKAEYRVNKEYDYWGQGTQVTVSS	low polyreactivity
QVQLVESGGGLVQAGGSLRLSCAASGFTFYDYAMGRYIQAPGKERELVAGINSGDSTYYADSVKGRFTISRDNAKNSVYLLMNSLKPEDSAVYYCAADWAWLQWAYDYWGQGTQVTVSS	low polyreactivity
QVQLEESGGGLVQAGGSLRLSCAAAGINFTYYAMGWYRQAPGKERELVAAISYRGGSTYADSVKGRFTISRDNAKNTVYLPMNSLKPEDTAVYYFAADSPVPDSGEGYWGQGTQVTVSS	high polyreactivity
QVQLVESGGGLVQAGGSLRLSSAASGYIFDWNAMGWYRQAPGKERELVAAISSGGRTNYADSVKGRFTISRDNAKNTVYLQMNSLKPEDTAVYYCAAVYTDPYVEYDYWGQGTQVTVSS	low polyreactivity
QVQLVESGGGIVQAGGSLRLSCTASGFTFVYYAMGWYRQAPGKERELVASISRSGGSTYYADSVKGRFTISRDNAKNTVYLQMNSLKPEDTGVYYCNARYGRTALLDYWGQGTQVTVSS	high polyreactivity
QVQLVESGGGLVQAGGSLRLSCAASGSIFFVYGMGWYRQAPGKERELVAAISGGITNYADSVKGRFTISRDNAKNTVNLQMNSLKPEDTAVYYCAAYTPSYGGRDYWGQATQVTVSS	low polyreactivity
QVQLVESGGGLVQAGGSLRLSCAASGFTFGFYAMGWYRQAPGKERELVAAISKRGGSTYYADSVKGRFTISRDNAKNTVYLQMNSLKPEDTAVYYCAAVYTQSRGWEYDYWGQGTQVTVSS	high polyreactivity
QVQLVESGGGLVQAGGSLRLSCAASGSIFYSYAMGWYRQAPGKERELVAVITRGGSTNYADSVKGRFTISRDNAKNTVYLQLNSLKPEDTAVYYCNKDRYGKVFRYPPYYRSSPYDYWGQGTQVTVSS	high polyreactivity
QVQLVESGGGVVQAGGSLRLSCAASGSTAIYYTMGWYRQAPGKERELVAYADSVKGRFTISRDNAKTTVYLQMNSLKPEDTAVYSCAAPRTYYSELTSPYDYWGQGTQVTVSS	low polyreactivity
QVQLVESGGGLVQAGGSLRLSCAASGFTFDIYAMGWYRQAPGKEWELVAAITSGGITNYADSVKGRFTISRDNAKNTVYLQMNSLKPEDTAVYYCAADEYLGFYVSHTDWTKYDYWGQGTQVTVSS	low polyreactivity
QVQLVESGGGLVQAGGSLRLSCAASGRIYRYYAMGWYRQAPGKEREFVAAISYRGASTFYADSVKGRFTISRDNAKNTVYLQMNSLKPEDTAVYYCATDTRIRYQGNPYDYWGQGTQVTVSS	high polyreactivity
QVQLVESGGGLVQAGGSLRLSCASSGITFPGNAMGWYRQAPGKERELVAGISDGDSTNYADSVKGRFTISRDNAKNTVYLQMNSLKPEVTAVYYCNAQGTTETSGGGFFRGMDYWGQGTQVTVSS	low polyreactivity
QVQLVESGGGLVQAGRSLCLSCAASGSIFINAMGWYRQAPGKERELVATIRWRGGTTYYADSVKGRFTISRDNAKNTVDLQMNSLKPEATAVYYCAADRSYYPDTRTTYGYNYWGQGTQVTVSS	low polyreactivity
QVQLVESGGGLVQAGGSLRLSCAASGSIFVTYAMGWYRQAPGKERELVAAISTSGGSTYADSVKGRFTISRDNAKNTVYLQMNSLKPEDTAVYYCNADDPGYAVPWYWFKYDYWGQGTQVTVSS	low polyreactivity
QVQLVESGGGLVQAGGSLRLSCAASGFTIYYYAMGWDRQAPGKERELVASITSGGSTYYADSVKGRFTISRDNAKNTVYLQMNSLKPEDTAVYYCAADYYSPSLRYDYWGQGTQVTVSS	low polyreactivity

Sequence	polyreactivity (PSR sort gate)
QVQLVESGGGLVQAGGSLRLSCAASGSTFWPYAMGWYRQAPGKERELVAAINYSSGSTYYADSVKGRFTISRDNAKNTVYLQMNSLKPEDNAVYYCAKGWYAGYPYDYWGQGTQVTVSS	low polyreactivity
QVQLVESGGGLVQAGGSLRLSCAASGSIFDRYAMGWYRQAPGKDRELVAAITWSGGSTRYADSVNGRFTISRDNAKNTVYLQMNILKPEDTAVYYCPASSTRWKVYYWGQGTQVTVSS	high polyreactivity
QVQLVESGGGLVQAGGSLRLSCAASGRTFKYYAMGWSRQAPGKERELVATISSGGSTNYADSVKGRFTISRDNAKNTVYLQMNSLKPEDTAVYYCADTIGHNGFDYWGQGTQVTVSS	low polyreactivity
QVQLVESGGGLVQAGGRLRLSCAASGSILNFYAMGWYRQAPGKEREFVASISWDGASTYYADSVKGRFTISRDNAKNTVYLPMNSLKPEDTAVYYCAATRYYSFWGQGTQVTVSS	low polyreactivity
QVQLVESGGGLVQAGGSLRLSCAASGSTFWAYAMGWYRQAPGKERELVATITWSVGGTYYADSVKGRFTISRDNAKNTVYLQMNSLKPEDTAVYYCATDAYVKGVYEISEDRVDYWGQGTQVTVSS	low polyreactivity
QVQLVESGGGLVQAGGSLRLSCAASGRTQTRYTMGWYRQAPGKERELVATISRSGGNTHYADSLKGRFTISRDNAKNTVYLQMNSLKPEDTEVYYCNAVRYAIYGYDYWGQGTQVTVSS	high polyreactivity
QVQLVESGGCLVPAGGSLRLSCAASGRTFYYNAMGWYRQAPGKERELVAAISSSGGRTYYADSVKGRFTISRDNGKNTVYLQMNSLKPEDTAVFYCAALTNARGFDYWGQGTQVTVSS	high polyreactivity
QVQLVESGGGLVQAGGSLRLSCAASGSTFPQNVMGWYRQAPGKERELVAAITRSAGSTYYADSVKGRFTISRDNAKNTVYLQMNSLKPEDTAVYYCNTGRQRGDGWGQGTQVTVSS	high polyreactivity
QVQLVESGGGLVQAGGSHRLSFAASGSLFYWYAMGWYRQAPGKERELVAAITTSGGRTYYADSVKGRFTISRDNAKNTVYLQMNSLIPEDSAVYYCNSAALFRYYDRWKTAYDYWGQGTQVTGSS	high polyreactivity
QVQLVESGGGLVHAGGSLRLSCAASGRIYRGNAMGWYRQAPGKERELVARITGNDGDTYYADSVKGRFTISRDNEKNTVYLQMKSLKPEDTAVYYCATDTSSYRSRYYYWGQGTQVTVSS	low polyreactivity
QVQLVESGGGLVQAGGSLRLSCAASGRTFALNALGWSRQAPGKERELVAAISWSSGRTYYADSVKGRFTISRDNAKNTVYLQMNSLKPEDTAVYYCAALVAHKGDYWGQGTQVTVSS	high polyreactivity
QFKLVESGGVLVKEGGRLRLICAASGSTFDENDMGRYRQAPGKEMEIVAVIYIGTSTNYADSVKGRFTISRDNAKNTVYLQMNSLKPEDTAVYYCAADVPGSYLVAIVGNAFNYWGQGTQVTVSS	low polyreactivity
QVQLVESGGGLVQAGGSLRLSCAASGRIFGGYVMGWYRQAPGKEREFVAAISGRGTSTSYADSVKGRFTISRDNAKNTVYVQMNSLKPEDTAVYYCAARPKSDYSNGGNYWGQGTQVTVSS	high polyreactivity
QVQLVESGGGLVQAGGSLRLSCAASGSTFVPNAMGWYRQAPGKEREFVAAIRVSCDNTYYADSVKGRFTISRDNAKNTDYLQMNSLKPEDTAVYYCAATGTVLGSVDYWGQGSQVTVSS	low polyreactivity
QVQLVESGGGLVQAGGSLRLSCAASGRIFSVYAMGWYRQAPGKERELVAGITSSGGSTYYADSVKGRFTISRDNAKNTVYLQMNSLKPEDTAVYYCNAYSQYWLGNNYWGQGTQVTVSS	high polyreactivity
QVQQQESGGGLVQAGGSLRLSCAASGYISVVIGMGWYRQSPGKERELVASIAYGAITYYTDSVKGRFTISRDYAKNTEYLQMNSLKAEDTAVYYCAADQPPLAYHWYWGQGTQATVSS	high polyreactivity
QVQHVESGGGLVQAGGSLRLSCAASVRTFIYYAMGWYRQAPGKERELVASITTGGRTYYADSVKGRFTISRDNAKNTVYLQMNSLKPEDTAVYYCNARWYRTGSTYHEDYWGQGTQVTVSS	high polyreactivity
QVQLVESGGGLVQAAGSLRLSCAAYGGIFYWYAMGWYRQAPGKVRELVAVITLSGGSTDYADSVKGRFTISRDNAKNTVSLQMNSLKPEDTAFYYCAAEAYSYYPGTYEDDYWGQGTQVTVSS	low polyreactivity
QVQLVESGGGLVQAGGSLRLSCAASGTTFGRNAMGWYRQAPGKERELVAAINSGGGTYYADSVKGRFTISRDNAKNTVYFQMNSLKPEDTAVYYCAAARRYGNYDYWGQGTQVTVSS	low polyreactivity
QVQLVESGGGLVQAGGSLRLSCAASGSTFDSYAMGWYRQAPGKERELVAAISRSGGRTYYADSVKGRFTISRDNAKNTVYLQMNSLKPEDTAVYYCNAAYKRWVTPGYDAYDYWGQGTQVTVSS	high polyreactivity
QVQLVESGGGLVQAGGSLRLSCAASGRTFVQYVMGWYRQAPGKERELVARISSGGSTFYADSVKGRFTISRDNAKNSVYLQLNSLKPEDTAVYYCAAQWTRYRRRPMDYWGQGTQVTVSS	high polyreactivity
